Experiments:
[1] = molecular target: mammalian wild-type HSP60 purified from porcine liver (porcine); experiment: transmission electron microscopy; HSP60 alone with GTP; side views classified, over 100 molecules counted
[2] = molecular target: mammalian wild-type HSP60 purified from porcine liver (porcine); experiment: transmission electron microscopy; HSP60 with HSP10 and ATP; side views classified, over 100 molecules counted
[3] = molecular target: mammalian wild-type HSP60 purified from porcine liver (porcine); experiment: transmission electron microscopy; HSP60 alone with ATP; side views classified, over 100 molecules counted
[4] = molecular target: mammalian wild-type HSP60 purified from porcine liver (porcine); experiment: transmission electron microscopy; HSP60 alone, without nucleotide (Figure S1A)
[5] = molecular target: mammalian wild-type HSP60 purified from porcine liver (porcine)

| percent of HSP60 as double-ring [1] | percent of HSP60 in double-ring structures [2] | percent of HSP60 as double-ring (HSP60 14) [3] | stoichiometry N [3] | stoichiometry N [4] | refolding yield of chemically denatured rhodanese by HSP60/HSP10 in the presence of GTP (recovery of enzymatic activity, 60 min) [5] | Substance |
| --- | --- | --- | --- | --- | --- | --- |
| 20% | 70% | 40% | 14 | 7 |  | mammalian wild-type HSP60 purified from porcine liver (natural protein) |
|  |  |  |  |  | 40% | mammalian wild-type HSP10 purified from porcine liver (from UniProt F1SMZ6 1-102) (natural protein) |

From article PMC5717063
